Earlier results on 1 substance are cited in PMC3587688.

This data set addresses ephrin-B2 (Homo sapiens) (UniProt P52799).

Sequence of ephrin-B2 (Homo sapiens) (P52799 28-333): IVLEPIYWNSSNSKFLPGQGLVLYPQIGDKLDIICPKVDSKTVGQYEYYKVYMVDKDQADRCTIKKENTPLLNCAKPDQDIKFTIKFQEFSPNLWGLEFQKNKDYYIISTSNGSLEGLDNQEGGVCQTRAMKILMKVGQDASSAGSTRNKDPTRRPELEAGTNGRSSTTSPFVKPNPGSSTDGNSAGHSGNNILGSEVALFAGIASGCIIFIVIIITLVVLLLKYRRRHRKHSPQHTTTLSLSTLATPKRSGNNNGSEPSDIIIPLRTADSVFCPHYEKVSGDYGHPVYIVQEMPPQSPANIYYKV
Sequence of HeV-G (O89343 whole entry): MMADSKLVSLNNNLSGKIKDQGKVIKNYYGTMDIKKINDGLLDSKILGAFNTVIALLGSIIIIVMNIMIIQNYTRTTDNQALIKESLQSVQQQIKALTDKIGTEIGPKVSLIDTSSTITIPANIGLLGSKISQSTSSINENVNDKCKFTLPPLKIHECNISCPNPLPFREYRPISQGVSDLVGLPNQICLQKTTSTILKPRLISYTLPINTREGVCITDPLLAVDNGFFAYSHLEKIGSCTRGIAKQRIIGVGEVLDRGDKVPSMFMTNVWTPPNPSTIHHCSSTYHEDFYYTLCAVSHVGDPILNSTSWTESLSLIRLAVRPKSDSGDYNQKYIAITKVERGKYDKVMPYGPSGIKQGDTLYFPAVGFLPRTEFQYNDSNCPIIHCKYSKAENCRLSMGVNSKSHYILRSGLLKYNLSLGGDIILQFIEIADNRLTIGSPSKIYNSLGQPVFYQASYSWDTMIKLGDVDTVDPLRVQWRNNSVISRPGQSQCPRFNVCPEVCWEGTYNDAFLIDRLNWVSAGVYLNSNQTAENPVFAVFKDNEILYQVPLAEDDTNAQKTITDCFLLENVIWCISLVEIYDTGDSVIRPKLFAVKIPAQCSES

HeV-G (from UniProt O89343): the Kd (as a rule, a measure of binding affinity in units of concentration) was 0.57 nM.
